From patent US20250215095

How the values were obtained:
[1] = target: T1, internally quenched peptide probe with CM AWGLSGRS (SEQ ID NO: 686)
T1 chain: SAWGLSGRSGKR

[2] = target: T2, internally quenched peptide probe with CM LSGKSPWGL (SEQ ID NO: 178)
T2 chain: SLSGKSPWGLGKR

[3] = target: T3, internally quenched peptide probe with CM LSGRSPAGL (SEQ ID NO: 694)
T3 chain: SLSGRSPAGLGKR

[4] = target: T4, internally quenched peptide probe with CM LSGRSPWGL (SEQ ID NO: 177)
T4 chain: SLSGRSPWGLGKR

[5] = target: T5, internally quenched peptide probe with CM PAGLSGRS (SEQ ID NO: 687)
T5 chain: SPAGLSGRSGKR

[6] = target: T6, internally quenched peptide probe with CM PWALSGRS (SEQ ID NO: 688)
T6 chain: SPWALSGRSGKR

[7] = target: T7, internally quenched peptide probe with CM PWGASGRS (SEQ ID NO: 689)
T7 chain: SPWGASGRSGKR

[8] = target: T8, internally quenched peptide probe with CM PWGLAGRS (SEQ ID NO: 690)
T8 chain: SPWGLAGRSGKR

[9] = target: internally quenched peptide probe with CM PWGLRS (SEQ ID NO: 48)
[10] = target: T9, internally quenched peptide probe with CM PWGLSARS (SEQ ID NO: 691)
T9 chain: SPWGLSARSGKR

[11] = target: T10, internally quenched peptide probe with CM PWGLSG (SEQ ID NO: 684)
T10 chain: SPWGLSGGGSKR

[12] = target: T11, internally quenched peptide probe with CM PWGLSGAS (SEQ ID NO: 692)
T11 chain: SPWGLSGASGKR

[13] = target: T12, internally quenched peptide probe with CM PWGLSGKS (SEQ ID NO: 150)
T12 chain: SPWGLSGKSGKR

[14] = target: T13, internally quenched peptide probe with CM PWGLSGR (SEQ ID NO: 163)
T13 chain: SPWGLSGRGSKR

[15] = target: T14, internally quenched peptide probe with CM PWGLSGRA (SEQ ID NO: 693)
T14 chain: SPWGLSGRAGKR

[16] = target: T15, internally quenched peptide probe with CM PWGLSGRS (SEQ ID NO: 12)
T15 chain: SPWGLSGRSGKR

[17] = target: internally quenched peptide probe with CM RSPWGL (SEQ ID NO: 90)
[18] = target: T16, internally quenched peptide probe with CM WGLSGRS (SEQ ID NO: 685)
T16 chain: GSWGLSGRSGKR

Row | Protein | Probe Cleavage (pM/s) [1] [pM/s] | Probe Cleavage (pM/s) [2] [pM/s] | Probe Cleavage (pM/s) [3] [pM/s] | Probe Cleavage (pM/s) [4] [pM/s] | Probe Cleavage (pM/s) [5] | Probe Cleavage (pM/s) [6] [pM/s] | Probe Cleavage (pM/s) [7] [pM/s] | Probe Cleavage (pM/s) [8] [pM/s] | Probe Cleavage (kcat/KM (M^-1 s^-1)) [9] [M⁻¹ s⁻¹] | Probe Cleavage (pM/s) [9] [pM/s] | Probe Cleavage (pM/s) [10] [pM/s] | Probe Cleavage (pM/s) [11] [pM/s] | Probe Cleavage (pM/s) [12] [pM/s] | Probe Cleavage (kcat/KM (M^-1 s^-1)) [13] [M⁻¹ s⁻¹] | Probe Cleavage (pM/s) [13] [pM/s] | Probe Cleavage (pM/s) [14] [pM/s] | Probe Cleavage (pM/s) [15] [pM/s] | Probe Cleavage (kcat/KM (M^-1 s^-1)) [16] [M⁻¹ s⁻¹] | Probe Cleavage (pM/s) [16] [pM/s] | Probe Cleavage (kcat/KM (M^-1 s^-1)) [17] [M⁻¹ s⁻¹] | other results
1 | matrix metalloprotease 2 (MMP2) (protein) YNFFPRKPKWDKNQITYRIIGYTPDLDPETVDDAFARAFQVWSDVTPLRFSRIHDGEADIMINFGRWEHGDGYPFDGKDGLLAHAFAPGTGVGGDSHFDDDELWTLGEGQVVRVKYGNADGEYCKFPFLFNGKEYNSCTDTGRSDGFLWCSTTYNFEKDGKYGFCPHEALFTMGGNAEGQPCKFPFRFQGTSYDSCTTEGRTDGYRWCGTTEDYDRDKKYGFCPETAMSTVGGNSEGAPCVFPFTFLGNKYESCTSAGRSDGKMWCATTANYDDDRKWGFCPDQGYSLFLVAAHEFGHAMGLEHSQDPGALMAPIYTYTKNFRLSQDDIKGIQELYGASPDIDLGTGPTPTLGPVTPEICKQDIVFDGIAQIRGEIFFFKDRFIWRTVTPRDKPMGPLLVATFWPELPEKIDAVYEAPQEEKAVFFAGNEYWIYSASTLERGYPKPLTSLGLPPDVQRVDAAFNWSKNKKTYIFAGDKFWRYNEVKKKMDPGFPKLIADAWNAIPDNLDAVVDLQGGGHSYFFKGAYYLKLENQSLKSVKFGSIKSDWLGC | 816 | 37.1 | 2080 | 48.9 | Above the limit of quantification | 4890 | 202 | 4870 | 140000 | 3800 | 9580 | 3100 | 4370 | 59000 | 1620 | 6540 | 6100 | 78000 | 2920 | 260000 | Probe Cleavage (pM/s) [17]: 11700 pM/s; Probe Cleavage (pM/s) [18]: 66.4 pM/s
2 | membrane type serine protease 1 (MT-SP1) (protein) VVGGTDADEGEWPWQVSLHALGQGHICGASLISPNWLVSAAHCYIDDRGFRYSDPTQWTAFLGLHDQSQRSAPGVQERRLKRIISHPFFNDFTFDYDIALLELEKPAEYSSMVRPICLPDASHVFPAGKAIWVTGWGHTQYGGTGALILQKGEIRVINQTTCENLLPQQITPRMMCVGFLSGGVDSCQGDSGGPLSSVEADGRIFQAGVVSWGDGCAQRNKPGVYTRLPLFRDWIKENTGV | 17000 | 595 | 1520 | 812 | 16500 pM/s | 15300 | 18000 | 15800 | 31000 | 1230 | 13100 | 5.1 | 13 | 80000 | 2330 | 1290 | 7620 | 150000 | 7810 | 48000 | Probe Cleavage (pM/s) [17]: 2390 pM/s; Probe Cleavage (pM/s) [18]: 10600 pM/s
